Reference: article PMC8675929 (PLoS Pathogens, 2021)

T1: 36mer repeat peptide (NANP)9 (Plasmodium falciparum repeat, synthetic …)
T1 construct: printed as (NANP)9, 36mer; nine NANP tetrapeptides of the central repeat region of Plasmodium falciparum circumsporozoite protein; source: created by Genscript, as previously described [21,40]
T1 chain: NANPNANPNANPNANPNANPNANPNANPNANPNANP

B1: L4 (antibody, V domains shown)
VH: QLQLQESGPRLVKPSETLSLTCTVSGGSISRTSYYWDWIRQPPGKGLEWIGSIYYRGSTYHNPSLKSRVTISVDTSKNQFSLRLTSVTAADTAVYYCARPKNLGVVAATNWFDPWGQGTLVTVSS
VL: QSVLTQPPSVSGAPGQRVTISCTGSSSNIGATYDVHWYQQLPGTAPKLLIYDNNNRPSGVPDRFSGSKSGTSASLAITGLQADDEADYYCQSYDSSLSGVVFGGGTKLTVL
B2: L20 (antibody, V domains shown)
VH: EVQLVESGGGLVQPGRSLRLSCAASGFTFDDYAMHWVRQAPGKGLEWVSGINWNSGSIGYADSVKGRFTISRDNARNSLYLQMNGLRAEDTAFYYCAKDLRAYYYGSGSPWGFHHWGQGTLVTVSS
VL: QSALTQPPSASGSPGQSVTISCTGTSSDVGGYNYVSWYEQHPGKAPKLLIYEVSKRPSGVPDRFSGSKSGNTASLTVSGLQAEDEADYYCSSYAGSNNVVFGGGTKLTVL
B3: L15 (antibody, V domains shown)
VH: EVQLVESGGVVVQPGGSLRLSCAASGFTFDDYTMHWVRQAPGKGLEWVSLISWDGGTTYYADSVKGRFTISRDNSKNSLYLRMNSLRTEDTALYYCAKGLVAQWLRGDYYYGLHVWGQGTTVTVSS
VL: QSALTQPASVSGSPGQSITISCTGTSSDVGAYNSVSWYQQHPGKAPKLMIYDVTNRPSGVSNRFSGSKSGNTASLTISGLQAEDEADYYCSSYTITNTLVFGGGTKLTVL
B4: L7 (antibody, V domains shown)
VH: QLQLQESGPGLVKPSETLSLTCTVSGGSISSSNYYWDWIRQPPGKGLEWIGSINYSGSTYYNPSLKSRVTISVDTSKIQFSLKMSSVTAADTAVYYCARRRVDFWSGYNWFDPWGQGTLVTVSS
VL: QPVLTQPPSASASMGASVTLTCTLSSGYSKYKVDWYQQRPGKGPRFVMRAGTGGIVGSKGDGIPDRFSVLGSGLNRYLTIKNIQEEDESDYHCGADHGSGSNFVYVFGTGTKVTIL
B5: 1710 (antibody, V domains shown)
VH: EVQLQESGGGLVKPGGSLRLSCAASGFTFSSYSMNWVRQAPGKGLEWVSSITSSSSYIYYADSVKGRFTISRDNAKNSLYLQMNSLRAEDTAVYYCARDPGIAAADNHWFDPWGQGTLVTVSS
VL: not shown

Target: T1, 36mer repeat peptide (NANP)9
Assay: ELISA; antigen coated at 0.5 μg/mL in bicarbonate buffer overnight at 4°C; mAbs 5x10^-7–5.0 μg/mL, 2 hrs at 37°C; HRP-conjugated goat anti-human IgG; AUC of OD450
Conditions: both partners purified

Binder | binding result
B1 | no binding (tested: 5.0 μg/mL)
B2 | no binding (tested: 5.0 μg/mL)
B3 | no binding (tested: 5.0 μg/mL)
B4 | no binding (tested: 5.0 μg/mL)

Target: T2, N-CSP (N-terminus of PfCSP) (Plasmodium falciparum 3D7, UniProt Q7K740)
T2 construct: source: created by Genscript, as previously described [21,40]
Assay: ELISA
Conditions: both partners purified

Binder | binding result
B1 | no binding (tested: 5.0 μg/mL)
B5 | no binding (tested: 5.0 μg/mL)
B2 | no binding (tested: 5.0 μg/mL)
B3 | no binding (tested: 5.0 μg/mL)
B4 | no binding (tested: 5.0 μg/mL)

Target: T3, full-length recombinant PfCSP (FL-rCSP) (Plasmodium falciparum 3D7 (clone of …, UniProt Q7K740))
T3 construct: also called PfCSP_3D7
Assay: ELISA
Conditions: both partners purified

Binder | binding result
B1 | binds
B2 | binds
B3 | binds
B4 | binds

Target: T4, recombinant C-CSP construct (PfCSP_3D7 amino acids 295–374) (Plasmodium falciparum 3D7, UniProt Q7K740)
T4 construct: also called C-terminal domain of PfCSP
Assay: ELISA
Conditions: both partners purified

Binder | binding result
B1 | binds
B5 | binds
B2 | binds
B3 | binds
B4 | binds

Target: full-length PfCSP on transgenic P. berghei sporozoites (Pb-PfCSP-GFP/Luc-SPZ) (Plasmodium falciparum, 3D7 (transgene …, UniProt Q7K740))
Assay: flow cytometry on cells; 20 μg/mL mAb on midgut (MG) Pb-PfCSP-SPZ; goat anti-human IgG-Alexa Fluor 647
Conditions: one partner purified

Binder | binding result
B3 | binds
